Measured values as given in publication PMC4946879.

What was measured:
[1] = target: HIV-1 Gag CTD-SP1 (residues 281–377 of HIV-1 NL4-3 Gag, P373T) (HIV-1 NL4-3); assay: crystal structure; other crystal hits from screens with commercial and in-house precipitants; mature-like dimer form of the CTD with disordered SP1 tails; not deposited
[2] = target: HIV-1 Gag CTD-SP1 (residues 281–377 of HIV-1 NL4-3 Gag, P373T) (HIV-1 NL4-3); assay: crystal structure; plate crystals of stacked flat hexagonal lattices; 0.1 M Bis-Tris propane, pH 7-8, 0.8-1.0 M LiSO4; sitting drops, 1:2 protein:precipitant; 3.27 Å

## HIV-1 Gag CTD-SP1 (residues 281–377 of HIV-1 NL4-3 Gag, P373T) (domain or fragment)
[1]
  stoichiometry N: 2
[2]
  stoichiometry N: 6
